One molecule from US20190041402A1 (GOVERNING COUNCIL OF THE UNIVERSITY OF TORONTO, published 2019) can be followed below.

What is called Kd is the concentration at which binding is half-saturated. The koff is the rate constant with which the complex falls apart. Broadly, the kon is a measure of how fast the partners come together.

In experiment [1] the target is T1, soluble human αKlotho (recombinant) (human, UniProt Q9UEF7 34-981).
T1 construct: also called Hu aKL; recombinant human αKlotho
T1 sequence (looked up): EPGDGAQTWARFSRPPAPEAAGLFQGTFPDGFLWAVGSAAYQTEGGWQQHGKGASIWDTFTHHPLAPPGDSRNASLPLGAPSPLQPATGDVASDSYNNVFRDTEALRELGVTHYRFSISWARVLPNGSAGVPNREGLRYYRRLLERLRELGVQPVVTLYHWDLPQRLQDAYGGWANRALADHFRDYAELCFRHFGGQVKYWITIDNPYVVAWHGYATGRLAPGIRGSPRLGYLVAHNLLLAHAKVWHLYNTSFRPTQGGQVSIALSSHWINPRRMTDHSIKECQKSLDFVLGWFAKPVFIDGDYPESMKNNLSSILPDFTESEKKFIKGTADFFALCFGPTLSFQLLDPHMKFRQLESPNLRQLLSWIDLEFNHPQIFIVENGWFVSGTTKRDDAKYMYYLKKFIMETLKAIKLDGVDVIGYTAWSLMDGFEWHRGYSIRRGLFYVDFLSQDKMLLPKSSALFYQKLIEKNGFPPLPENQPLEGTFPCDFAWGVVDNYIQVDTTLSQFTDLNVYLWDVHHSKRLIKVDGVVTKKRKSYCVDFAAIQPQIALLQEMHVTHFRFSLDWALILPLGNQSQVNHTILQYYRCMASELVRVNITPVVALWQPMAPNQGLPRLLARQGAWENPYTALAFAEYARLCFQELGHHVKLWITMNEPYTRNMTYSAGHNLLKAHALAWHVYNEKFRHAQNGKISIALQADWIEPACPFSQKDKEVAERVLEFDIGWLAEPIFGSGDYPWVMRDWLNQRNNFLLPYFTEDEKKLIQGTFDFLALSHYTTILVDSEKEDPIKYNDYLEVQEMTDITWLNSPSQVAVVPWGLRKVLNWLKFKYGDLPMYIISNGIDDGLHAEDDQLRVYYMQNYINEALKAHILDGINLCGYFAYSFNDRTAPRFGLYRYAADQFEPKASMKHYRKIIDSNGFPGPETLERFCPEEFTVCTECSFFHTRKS
Kind of experiment: SPR (ProteOn XPR36), Fab captured by anti-IgG(H+L), human αKlotho injected in serial dilutions, Langmuir fit. As to the method: Estimated affinities against human and mouse antigen for select αKlotho Fabs were obtained by surface plasmon resonance on a ProteOn XPR36 (FIG. 17). Fabs were captured using an anti-IgG(H+L) antibody and serial dilutions of αKlotho were injected. Binding curves were fitted to the Langmuir model. (A) Determined Kon, Koff and KD values. (B) and (C) Binding curves for human and mouse antigen respectively.

The target in experiment [2] is T2, extracellular domain (ECD) of human αKlotho, amino acids E34-S981 with C-terminal 6-His tag (R&D Systems … (human, UniProt Q9UEF7 34-981)).
T2 construct: range 34-981; also called αKlotho (aa34-981); target antigen
T2 sequence: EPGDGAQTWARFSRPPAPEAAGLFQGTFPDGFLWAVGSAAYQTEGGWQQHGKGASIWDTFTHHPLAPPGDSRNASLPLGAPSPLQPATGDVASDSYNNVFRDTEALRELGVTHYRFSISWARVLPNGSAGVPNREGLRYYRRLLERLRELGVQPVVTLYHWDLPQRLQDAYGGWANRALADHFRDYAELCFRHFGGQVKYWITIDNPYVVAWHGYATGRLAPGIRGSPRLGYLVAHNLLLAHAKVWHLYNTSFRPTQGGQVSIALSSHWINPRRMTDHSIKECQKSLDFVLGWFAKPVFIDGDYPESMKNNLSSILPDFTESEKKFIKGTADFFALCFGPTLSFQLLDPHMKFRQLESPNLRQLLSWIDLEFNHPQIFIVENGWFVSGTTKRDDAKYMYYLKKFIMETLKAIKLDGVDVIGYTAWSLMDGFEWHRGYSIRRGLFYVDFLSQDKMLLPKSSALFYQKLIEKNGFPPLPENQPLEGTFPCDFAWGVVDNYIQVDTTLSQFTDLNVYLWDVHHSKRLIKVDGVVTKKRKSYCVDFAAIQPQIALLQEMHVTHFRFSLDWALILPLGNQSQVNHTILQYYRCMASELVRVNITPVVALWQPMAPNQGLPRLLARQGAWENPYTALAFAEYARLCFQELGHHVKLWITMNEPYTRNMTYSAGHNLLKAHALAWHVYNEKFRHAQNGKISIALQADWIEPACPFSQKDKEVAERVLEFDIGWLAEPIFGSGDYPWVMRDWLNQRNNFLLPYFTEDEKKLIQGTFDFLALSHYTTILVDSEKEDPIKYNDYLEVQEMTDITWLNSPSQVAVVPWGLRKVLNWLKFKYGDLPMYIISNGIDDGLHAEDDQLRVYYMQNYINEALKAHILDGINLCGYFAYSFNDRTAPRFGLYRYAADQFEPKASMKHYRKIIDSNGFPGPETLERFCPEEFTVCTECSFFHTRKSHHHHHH
Kind of experiment: SPR, Fab captured by anti-H+L IgG, αKlotho injected at 50 to 6.25 ug/ml, Langmuir fit. The procedure:
Affinity estimates for each of the antibodies were determined by surface plasmon resonance (SPR). Fabs were immobilized using an anti-H+L antibody and serial dilutions of αKlotho were injected.
A general note: In SPR one partner is held on a chip, and binding of the other changes the refractive index at the surface.

Experiment [3] addresses T3, human FGFR1c ligand-binding domain (human, UniProt P11362 142-365).
T3 construct: range 142-365; also called FGFR1c alone
T3 sequence (looked up): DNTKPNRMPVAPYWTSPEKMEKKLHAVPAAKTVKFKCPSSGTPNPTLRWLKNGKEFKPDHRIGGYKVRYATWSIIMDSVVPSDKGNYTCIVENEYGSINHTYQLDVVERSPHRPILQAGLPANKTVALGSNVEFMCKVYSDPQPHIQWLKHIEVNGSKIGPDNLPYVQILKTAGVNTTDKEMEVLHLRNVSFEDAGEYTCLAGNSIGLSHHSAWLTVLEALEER
Kind of experiment: Fab-phage ELISA, immobilised antigen. (In general: An ELISA detects its analyte on a solid surface through an enzyme-linked reagent.)

B1: sb106 Fab (Fab, V domains shown)
VH: EVQLVESGGGLVQPGGSLRLSCAASGFNISYYSIHWVRQAPGKGLEWVAYISPSYGYTSYADSVKGRFTISADTSKNTAYLQMNSLRAEDTAVYYCARYYVYASHGWAGYGMDYWGQGTLVTVSS
VL: DIQMTQSPSSLSASVGDRVTITCRASQSVSSAVAWYQQKPGKAPKLLIYSASSLYSGVPSRFSGSRSGTDFTLTISSLQPEDFATYYCQQAGYSPITFGQGTKVEIKR
notes: also called Fsb106; clone 48
For the molecule B1, in experiment [1], the Kd was determined as 1.02 nM, the koff worked out at 0.000315 s⁻¹ and the kon is 308000 M⁻¹ s⁻¹. Besides, in experiment [2], the Kd is 1.08 nM, the koff turned out to be 0.000389 s⁻¹ and the kon was found to be 360000 M⁻¹ s⁻¹. Moreover, in experiment [3], the binding result is reported as “no binding”.
